Molecular target: unmodified, wild-type (WT) human FcRn (neonatal Fc receptor) (human) (UniProt P55899)
Assay: FcRn affinity chromatography with pH monitor

UniProt P55899, sequence (P55899 24-297, chain 1 of 2): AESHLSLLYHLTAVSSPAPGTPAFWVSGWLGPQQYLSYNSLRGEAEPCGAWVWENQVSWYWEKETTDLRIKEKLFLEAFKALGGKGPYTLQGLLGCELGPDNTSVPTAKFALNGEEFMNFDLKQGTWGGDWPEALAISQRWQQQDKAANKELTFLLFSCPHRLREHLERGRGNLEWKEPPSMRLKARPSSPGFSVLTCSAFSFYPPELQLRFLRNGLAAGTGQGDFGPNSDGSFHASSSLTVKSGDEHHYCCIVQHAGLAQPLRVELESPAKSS
UniProt P55899, sequence (P61769 21-119, chain 2 of 2, further chain): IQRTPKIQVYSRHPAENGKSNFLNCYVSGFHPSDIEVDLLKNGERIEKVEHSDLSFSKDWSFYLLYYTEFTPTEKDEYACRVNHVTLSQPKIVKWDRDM

Substance	FcRn dissociation pH (mean) [pH]
NIST mAb (reference material RM8671) (antibody)	7.22
adalimumab (antibody)	7.39
briakinumab (antibody)	7.81
cetuximab (antibody)	7.25
cusatuzumab (antibody)	7.12
durvalumab (antibody)	7.28
margetuximab (antibody)	7.34
rituximab (antibody)	7.43

From paper PMC10443974
